Source: publication PMC2709985 (Biochemistry, 2009)

How the values were obtained:
Sfp [1] = target: T1, Sfp (Bacillus subtilis, UniProt P39135); assay: tritium incorporation into apo MBP-PhsA-His6; format: biochemical; conditions: acceptor apo MBP-PhsA-His6; labelled compound
T1 sequence (P39135 1-224): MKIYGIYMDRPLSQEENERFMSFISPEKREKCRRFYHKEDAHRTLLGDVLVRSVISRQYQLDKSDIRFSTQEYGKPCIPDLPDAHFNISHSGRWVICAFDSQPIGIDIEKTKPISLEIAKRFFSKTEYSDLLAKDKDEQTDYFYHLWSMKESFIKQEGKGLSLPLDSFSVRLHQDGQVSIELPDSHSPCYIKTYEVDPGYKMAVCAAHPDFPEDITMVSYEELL

Sfp [2] = target: T1, Sfp; assay: fluorescent labelling of apo MBP-PhsA-His6, SDS-PAGE; format: biochemical; conditions: acceptor apo MBP-PhsA-His6; labelled compound
ATP-PPi exchange assay [3] = substrate: CC(=O)N[C@@H](CCC(=O)O)C(=O)O; assay: ATP-PPi exchange assay; format: biochemical, Streptomyces viridochromogenes; conditions: holo form (phosphopantetheinylated by Sfp), apparent constant
ATP-PPi exchange assay [4] = substrate: CC(=O)N[C@@H](CC[PH](=O)O)C(=O)O; assay: ATP-PPi exchange assay; format: biochemical, Streptomyces viridochromogenes; conditions: holo form (phosphopantetheinylated by Sfp), apparent constant

In the case of `CC(=O)SCCNC(=O)CCNC(=O)[C@H](O)C(C)(C)COP(=O)(O)OP(=O)(O)OC[C@H]1O[C@@H](n2cnc3c(N)ncnc32)[C@H](O)[C@@H]1OP(=O)(O)O` [[^3H]acetyl-CoA], the “tritium incorporation into apo MBP-PhsA-His6” value (Sfp [1]) is reported as “[^3H]acetyl-CoA was utilized as a cosubstrate, resulting in a time-dependent increase”.

For `CC1=CC(C)=[N+]2C1=Cc1ccc(CCC(=O)NCCN3C(=O)CC(SCCNC(=O)CCNC(=O)[C@H](O)C(C)(C)COP(=O)(O)OP(=O)(O)OC[C@H]4O[C@@H](n5cnc6c(N)ncnc65)[C@H](O)[C@@H]4OP(=O)(O)O)C3=O)n1[B-]2(F)F` (some centres unmarked) [BODIPY-FL-N-(2-aminoethyl)maleimidyl-S-CoA], the “fluorescent labelling of apo MBP-PhsA-His6, SDS-PAGE” value (Sfp [2]) was “CoA analogue BODIPY-FL-N-(2-aminoethyl)maleimidyl-S-CoA was employed to install a fluorescently labeled phosphopantetheine arm”.

B1: MBP−PhsA−His6 (Streptomyces viridochromogenes) (protein)
chain: MTAATPDTAPDRTGPSPGACPVVAEFARRAQAGPDRPAVVLPEETVDYRELAARADAVARALLDSRGEGSEPVPLMVLHPAWMLAACLGVLKAGKYYVPLNPHHPDARNRDLLARLGAALVVTDGAVPGRLPGRITVLSVGELDVRPGTPGEPGPAVAPDQWAYALYTSGSTGLPKGILQNRADMRQNIDRHAALGIGPEDRVTLINADGFVAAVSNPYMALLNGAALVPYSFQRDGVHDLIDRLDAAGTTVYYSFPSFLRQAAAVSEGRTTDRVRLAYLGGESVHSSDVLAARRLFPAATVAVGLNSTETGLTRLRLIPPGAEVPDPVPVGGPVPGVEVRVEASPGRPAAVGEAGRIVVRSAFLHAAQWTDQGPRPLTEAVPEADSGTACEPAPRDFRTGDRGRLDGTGQLVHLGRVDGMVKVRGYRVETVEVESAVSAVTGVAEAAVVPYETAEHATELAAYVVAKDPDLTDAALRRALSETLPTHLVPSSVLLVPRLPRTRNGKIDRKALPDPASGTSGTAVSRPAPAHTPAPAPGDGPDEARARVLGQVGEIWSDVLGAGPVLPGDDFFSLGGTSISALRVVSRIRKELGVPLRLAVIFETPSLEAVAESVLRELKGT
B1 gave a Km (ATP-PPi exchange assay [3]) of 493 ± 82 µM, a kcat (ATP-PPi exchange assay [3]) of 0.48 ± 0.025 s⁻¹ and a kcat/Km (ATP-PPi exchange assay [3]) of 973 ± 167 M⁻¹ s⁻¹. It also gave a Km (ATP-PPi exchange assay [4]) of 254 ± 44 µM, a kcat (ATP-PPi exchange assay [4]) of 2.08 ± 0.108 s⁻¹ and a kcat/Km (ATP-PPi exchange assay [4]) of 8170 ± 1500 M⁻¹ s⁻¹.
